Measured values reported in patent US20260146074A1 (CITY OF HOPE, published 2026).

Molecular target: TAG72 on the surface of human tumor cells (LS174T, OVCAR3, OV90, OVCAR8-sTn, patient ascites OAS4 and OAS7) (human)
Test: cell-based or functional assay

B1: TAG72-BBζ CAR (hTag72scFv-IgG4(HL-CH3)-CD4tm-41BB-Zeta), expressed on human T cells (other)
chain: QVQLVQSGAEVVKPGASVKISCKASGYTFTDHAIHWVKQNPGQRLEWIGYFSPGNDDFKYNERFKGKATLTADTSASTAYVELSSLRSEDTAVYFCTRSLNMAYWGQGTLVTVSSGSTSGGGSGGGSGGGGSSDIVMSQSPDSLAVSLGERVTLNCKSSQSLLYSGNQKNYLAWYQQKPGQSPKLLIYWASARESGVPDRFSGSGSGTDFTLTISSVQAEDVAVYYCQQYYSYPLTFGAGTKLELKESKYGPPCPPCPGGGSSGGGSGGQPREPQVYTLPPSQEEMTKNQVSLTCLVKGFYPSDIAVEWESNGQPENNYKTTPPVLDSDGSFFLYSRLTVDKSRWQEGNVFSCSVMHEALHNHYTQKSLSLSLGKMALIVLGGVAGLLLFIGLGIFFKRGRKKLLYIFKQPFMRPVQTTQEEDGCSCRFPEEEEGGCELGGGRVKFSRSADAPAYQQGQNQLYNELNLGRREEYDVLDKRRGRDPEMGGKPRRKNPQEGLYNELQKDKMAEAYSEIGMKGERRRGKGHDGLYQGLSTATKDTYDALHMQALPPR
tumor killing relative to Mock, LS174T cells, 24 hours: 59% | tumor killing relative to Mock, LS174T cells, 72 hours: 77% | tumor killing relative to Mock, OV90 cells, 24 hours: 67% | tumor killing relative to Mock, OV90 cells, 72 hours: 97% | tumor killing relative to Mock, OVCAR3 cells, 24 hours: 79% | tumor killing relative to Mock, OVCAR3 cells, 72 hours: 90%
